From patent US20240343824A1 (MERUS N V, published 2024)
Each block holds one molecule with its values, some of them ahead of it.

Experiments:
[1] = target: human ZNRF3(ECD) on Freestyle 293F cells (human); assay: FACS on a mix of DiD-labelled ZNRF3 over-expressing and unlabelled parental 293F Freestyle cells, secondary reagents (anti-M13 and Strep-PE) only; Q3 0,120% [continued]
[2] = target: T1, recombinant human LGR5-Fc (human, UniProt O75473 22-561); assay: R-Spondin3 blocking ELISA: 0,031 µg/ml rhLGR5-Fc on 2 µg/ml coated rhR-Spondin3, competitor 15 µg/ml soluble R-Spondin3, detection anti-Fc, OD450 normalised to maximum binding
T1 construct: extracellular domain; also called rhLGR5-Fc (RND systems Cat. Nr. 8078-GP); not shown: Fc part of the bought fusion protein
T1 sequence (looked up): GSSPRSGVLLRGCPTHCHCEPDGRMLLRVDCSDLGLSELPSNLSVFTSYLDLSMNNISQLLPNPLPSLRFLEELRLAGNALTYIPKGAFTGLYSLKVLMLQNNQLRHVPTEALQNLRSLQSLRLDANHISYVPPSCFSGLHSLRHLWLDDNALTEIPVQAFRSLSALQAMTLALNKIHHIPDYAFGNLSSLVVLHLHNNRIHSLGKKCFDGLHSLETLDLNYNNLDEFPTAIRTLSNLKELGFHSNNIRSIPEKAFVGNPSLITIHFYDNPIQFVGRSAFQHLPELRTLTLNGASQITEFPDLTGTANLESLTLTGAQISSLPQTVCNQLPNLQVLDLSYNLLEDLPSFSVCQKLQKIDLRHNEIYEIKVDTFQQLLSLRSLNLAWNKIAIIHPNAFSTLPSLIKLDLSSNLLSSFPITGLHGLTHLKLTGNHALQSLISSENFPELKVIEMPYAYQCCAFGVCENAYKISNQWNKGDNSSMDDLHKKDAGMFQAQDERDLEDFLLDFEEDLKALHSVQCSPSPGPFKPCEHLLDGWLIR

[3] = target: T2, full length human LGR5-FLAG-HA on Freestyle 293F or CHO-K1 cells (human, UniProt O75473 22-907); assay: competition FACS on CHO-K1 cells over-expressing human LGR5; competitor PG7711p02 (OMP88R20 copy) fixed at 50 ng/ml, detected with anti-human IgG PE; MFI normalised to no R-spondin1
T2 construct: also called hLGR5; hLGR5(FL)
T2 sequence: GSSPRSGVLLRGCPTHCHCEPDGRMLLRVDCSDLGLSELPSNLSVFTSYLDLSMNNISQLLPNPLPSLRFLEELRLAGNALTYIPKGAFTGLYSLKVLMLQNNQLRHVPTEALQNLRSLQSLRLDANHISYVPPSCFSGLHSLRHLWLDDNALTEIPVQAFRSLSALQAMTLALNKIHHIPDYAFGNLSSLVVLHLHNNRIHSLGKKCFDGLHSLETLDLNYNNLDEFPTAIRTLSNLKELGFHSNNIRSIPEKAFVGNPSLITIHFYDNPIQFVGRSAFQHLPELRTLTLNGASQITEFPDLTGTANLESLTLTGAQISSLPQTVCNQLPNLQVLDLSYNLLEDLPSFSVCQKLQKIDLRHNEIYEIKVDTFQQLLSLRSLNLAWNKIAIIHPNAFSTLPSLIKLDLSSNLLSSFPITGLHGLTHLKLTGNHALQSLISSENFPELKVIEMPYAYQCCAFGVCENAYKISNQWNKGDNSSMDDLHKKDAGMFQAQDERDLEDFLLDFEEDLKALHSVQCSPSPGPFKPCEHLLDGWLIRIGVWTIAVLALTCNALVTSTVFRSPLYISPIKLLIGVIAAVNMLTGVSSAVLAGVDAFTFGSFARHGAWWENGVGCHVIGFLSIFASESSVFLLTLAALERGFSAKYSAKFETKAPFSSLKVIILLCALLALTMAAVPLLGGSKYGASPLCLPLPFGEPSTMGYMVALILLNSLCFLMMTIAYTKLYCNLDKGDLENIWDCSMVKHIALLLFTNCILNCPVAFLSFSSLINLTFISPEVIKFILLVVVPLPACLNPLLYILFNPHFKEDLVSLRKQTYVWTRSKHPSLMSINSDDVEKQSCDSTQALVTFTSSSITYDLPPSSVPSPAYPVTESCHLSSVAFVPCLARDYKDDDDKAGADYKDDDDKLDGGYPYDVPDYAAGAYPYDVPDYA

Chain of human ZNRF3(ECD) on Freestyle 293F cells (human) (chain, as listed by the source): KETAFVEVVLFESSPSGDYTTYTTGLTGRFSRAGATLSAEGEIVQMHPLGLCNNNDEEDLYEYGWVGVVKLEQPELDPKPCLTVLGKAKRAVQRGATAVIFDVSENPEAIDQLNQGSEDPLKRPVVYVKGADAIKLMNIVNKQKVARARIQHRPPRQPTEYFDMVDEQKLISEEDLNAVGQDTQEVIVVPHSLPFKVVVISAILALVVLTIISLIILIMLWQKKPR

% of events in Q2 (DiD-positive and PE-positive) [1]: 0.18%
Molecule: -Control

binding result [2]: binds
B1: recombinant human R-Spondin3 (ligand, UniProt Q9BXY4 22-272, looked up)
chain: QNASRGRRQRRMHPNVSQGCQGGCATCSDYNGCLSCKPRLFFALERIGMKQIGVCLSSCPSGYYGTRYPDINKCTKCKADCDTCFNKNFCTKCKSGFYLHLGKCLDNCPEGLEANNHTMECVSIVHCEVSEWNPWSPCTKKGKTCGFKRGTETRVREIIQHPSAKGNLCPPTNETRKCTVQRKKCQKGERGKKGRERKRKKPNKGESKEAIPDSKSLESSKEIPEQRENKQQQKKRKVQDKQKSVSVSTVH
notes: also called rhR-Spondin3; R-Spondin3 (RND systems)

IC50 (read off the curve) [3]: ~10 nM
B2: R-spondin1 (ligand, UniProt Q2MKA7 21-263, looked up)
chain: SRGIKGKRQRRISAEGSQACAKGCELCSEVNGCLKCSPKLFILLERNDIRQVGVCLPSCPPGYFDARNPDMNKCIKCKIEHCEACFSHNFCTKCKEGLYLHKGRCYPACPEGSSAANGTMECSSPAQCEMSEWSPWGPCSKKQQLCGFRRGSEERTRRVLHAPVGDHAACSDTKETRRCTVRRVPCPEGQKRRKGGQGRRENANRNLARKESKEAGAGSRRRKGQQQQQQQGTVGPLTSAGPA
notes: also called RSPO1; R-spondin1 (R&D Systems, cat. nr. 4645-RF/CF)
